Publication doi:10.1101/2021.12.06.471393

Target: CRISPR-Lon protease (Sulfurihydrogenibium sp. YO3AOP1)
Assay: SEC-MALS

Row | Substance | stoichiometry N (CRISPR-T variant per CRISPR-Lon) | stoichiometry N (CRISPR-T per CRISPR-Lon)
1 | CRISPR-T A171E (natural protein) | 1 | 
2 | CRISPR-T A194E (natural protein) | 1 | 
3 | CRISPR-T A181E (natural protein) | 1 | 
4 | CRISPR-T protein (natural protein) |  | 1
